Results: patent US20170137467A1 (CHROMOTEK, published 2017)
Square brackets hold non-standard residues; d marks the D form. GABA = NCCCC(=O)O

Columns and labels:
Assay in all cases: positional peptide library pulldown on immobilised Nb, LC-MS of supernatant; signal ratio to control GFP-Nb (1 = not captured, near 0 = captured)
BC2T A5E = target: T1, BC2T A5E
T1 construct: positional scanning library member
T1 peptide: Ac-PDRKEAVSHWQQ-NH2
Outline: (§1)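 Unbound peptide left in supernatant after 1 h pulldown in PBS/0.01% CHAPS measured by reversed-phase LC-MS (8–30% eluent B gradient, 20 min).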

BC2T A5P = target: T2, BC2T A5P
T2 construct: positional scanning library member
T2 peptide: Ac-PDRKPAVSHWQQ-NH2
Outline: as §1

BC2T V7T = target: T3, BC2T V7T
T3 construct: positional scanning library member
T3 peptide: Ac-PDRKAATSHWQQ-NH2
Outline: as §1

BC2T A6K = target: T4, BC2T A6K
T4 construct: positional scanning library member
T4 peptide: Ac-PDRKAKVSHWQQ-NH2
Outline: as §1

BC2T D2C(Abu) = target: T5, BC2T D2C(Abu) (SMILES …)
T5 construct: positional scanning library member
T5 peptide: Ac-P[GABA]RKAAVSHWQQ-NH2
Outline: as §1

BC2T D2W = target: T6, BC2T D2W
T6 construct: positional scanning library member
T6 peptide: Ac-PWRKAAVSHWQQ-NH2
Outline: as §1

BC2T V7R = target: T7, BC2T V7R
T7 construct: positional scanning library member
T7 peptide: Ac-PDRKAARSHWQQ-NH2
Outline: as §1

BC2T V7D = target: T8, BC2T V7D
T8 construct: positional scanning library member
T8 peptide: Ac-PDRKAADSHWQQ-NH2
Outline: as §1

BC2T P1W = target: T9, BC2T P1W
T9 construct: positional scanning library member
T9 peptide: Ac-WDRKAAVSHWQQ-NH2
Outline: as §1

BC2T A6Q = target: T10, BC2T A6Q
T10 construct: positional scanning library member
T10 peptide: Ac-PDRKAQVSHWQQ-NH2
Outline: as §1

BC2T K4H = target: T11, BC2T K4H
T11 construct: positional scanning library member
T11 peptide: Ac-PDRHAAVSHWQQ-NH2
Outline: as §1

BC2T D2Q = target: T12, BC2T D2Q
T12 construct: positional scanning library member
T12 peptide: Ac-PQRKAAVSHWQQ-NH2
Outline: as §1

BC2T A5F = target: T13, BC2T A5F
T13 construct: positional scanning library member
T13 peptide: Ac-PDRKFAVSHWQQ-NH2
Outline: as §1

BC2T R3D = target: T14, BC2T R3D
T14 construct: positional scanning library member
T14 peptide: Ac-PDDKAAVSHWQQ-NH2
Outline: as §1

BC2T A5H = target: T15, BC2T A5H
T15 construct: positional scanning library member
T15 peptide: Ac-PDRKHAVSHWQQ-NH2
Outline: as §1

BC2T V7K = target: T16, BC2T V7K
T16 construct: positional scanning library member
T16 peptide: Ac-PDRKAAKSHWQQ-NH2
Outline: as §1

BC2T D2T = target: T17, BC2T D2T
T17 construct: positional scanning library member
T17 peptide: Ac-PTRKAAVSHWQQ-NH2
Outline: as §1

BC2T K4N = target: T18, BC2T K4N
T18 construct: positional scanning library member
T18 peptide: Ac-PDRNAAVSHWQQ-NH2
Outline: as §1

BC2T V7E = target: T19, BC2T V7E
T19 construct: positional scanning library member
T19 peptide: Ac-PDRKAAESHWQQ-NH2
Outline: as §1

BC2T A5S = target: T20, BC2T A5S
T20 construct: positional scanning library member
T20 peptide: Ac-PDRKSAVSHWQQ-NH2
Outline: as §1

BC2T Q12E = target: T21, BC2T Q12E
T21 construct: positional scanning library member
T21 peptide: Ac-PDRKAAVSHWQE-NH2
Outline: as §1

BC2T Q11P = target: T22, BC2T Q11P
T22 construct: positional scanning library member
T22 peptide: Ac-PDRKAAVSHWPQ-NH2
Outline: as §1

B1: BC2-NbR106E (VHH)
VHH: QVQLVESGGGLVQPGGSLTLSCTASGFTLDHYDIGWFRQAPGKEREGVSCINNSDDDTYYADSVKGRFTIFMDNAKDTVYLQMNSLKPEDTAIYYCAEARGCKRGEYEYDFWGQGTQVTVSS
notes: headlock mutant of BC2-Nb; immobilised on beads in this assay
ratio (BC2T A5E): 0.8 | ratio (BC2T A5P): 0.2 | ratio (BC2T V7T): 0.2 | ratio (BC2T A6K): 0.9 | ratio (BC2T D2C(Abu)): 0.2 | ratio (BC2T D2W): 0.1 | ratio (BC2T V7R): 0.1 | ratio (BC2T V7D): 0.9 | ratio (BC2T P1W): 0.2 | ratio (BC2T A6Q): 1 | ratio (BC2T K4H): 0.2 | ratio (BC2T D2Q): 0.1 | ratio (BC2T A5F): 0.1 | ratio (BC2T R3D): 1 | ratio (BC2T A5H): 0.2 | ratio (BC2T V7K): 0.1 | ratio (BC2T D2T): 0.1 | ratio (BC2T K4N): 0.8 | ratio (BC2T V7E): 0.9 | ratio (BC2T A5S): 0.2

B2: BC2 nanobody (VHH)
VHH: QVQLVESGGGLVQPGGSLTLSCTASGFTLDHYDIGWFRQAPGKEREGVSCINNSDDDTYYADSVKGRFTIFMDNAKDTVYLQMNSLKPEDTAIYYCAEARGCKRGRYEYDFWGQGTQVTVSS
notes: immobilised on beads in this assay; also called BC2-Nb; BC2 nanotrap (immobilised)
ratio (BC2T Q12E): 0.4

B3: BC2-NbR106S (VHH)
VHH: QVQLVESGGGLVQPGGSLTLSCTASGFTLDHYDIGWFRQAPGKEREGVSCINNSDDDTYYADSVKGRFTIFMDNAKDTVYLQMNSLKPEDTAIYYCAEARGCKRGSYEYDFWGQGTQVTVSS
notes: as for B1
ratio (BC2T Q11P): 0.9
